The DeepSol protein solubility set

test: soluble on expression in E. coli; label from the status in PepcDB or PDB records

Sequence	soluble on expression in E. coli
MSLSKKPCAHIDCELEGGFERSIWIPVRVARLYVKNRPDLPCDWDNFREAVQLIERQCALTMVTEMLSRRDHATGEVCDKLARYGFHQPAIDFAVERATEYHFLDENRFCSYFIEERKRRGWGQRKIETELKRRHVVLDDIPGYPEDYFAVEDDLARASALLAKRRVPETRGFEKLVRFLMGKGFSYHIAADAVKARLDAEREEGHHHHHH	not soluble
MSLSKKSILLLCCSLCFISATKAVTPVRNVRNSQVNSKAKTERTKPSDSVRYISNMIADRLEFRNKISSEKEVRKAEYENRLAMEALNYPAIDLYGEDSWSEYVNPFVGAGTDVEIPNSYDIDCSSFVMPVEDKQVTSQFGYRRRFGRMHYGIDLSVNRGDTIRAAFDGKVRVRSYEARGYGYYIVLRHPNGLETVYGHMSRQLVDENQIVRAGQPIGLGGSTGRSTGPHLHFETRFMGIPINPSTIIDFDNGVPLRDIYTFKRGSNSRYAKASKTSSRYAKKGKKGRQASSPMTYRIKKGDTLETIAKRHGTSVQKLCATNGIGKSKILTPGKALRIKEGHHHHHH	soluble
MSLSKMEINKRALKENMALLACPICGEAFEFKEPQSFVCLEGHGFDIAKPGYVHLLKQAHKTKYDQALFESRKKVIASGFFEKLIERVTEIIAEKKKEQLVLYDAGCGEGSHLARVVSNLQATGVNVQAVGLDIAKEGVKQAARDYPGTSWTVADLANCPNQAETADVILNILSPSNYVEFKRLLKKDGFLLKVVPEANYLRELREFIYVDEKSSYSNESVTSRLAEKLSVEHVERVTYKAPIAKELFADFLEMTPLGWHIEADKKSELLGNPPEELTVDLQIIIANRAHLLEGHHHHHH	soluble
MSLSKNDHRITHNKSDKDNLDDDFSLFRDEVKGVKKLRQDTILHAPNRNPKQKEIRRTEREASDNDFYFSDEFMPHLTDEGPTRYARSDVSKYEVKRLRRGVYVPDVFLDMHGMTQQEAKRELGAMIAYCLKENVHCACVQHGIGKHILKQNVPLWLAQHPDVLAFHQAPLEFGGDGALLVLLSIPEKEGHHHHHH	soluble
MSLSKNPTSGFRLTHVGLRVTDIDRSVTFYTSVFGMKELGRMGLDTTTVVFLGYPDAADPQTQLFAREGVLELKSQRGMAESNDYPDFRFVKLAIGVPDMATAMEHIRSHNVKILKEAGVAQGSEVVSTFLGCDMPDKGFDRPLWEAVVAVPFVEDPDGYLIEIIPYEGHHHHHH	soluble
MSLSKQISNLNSSSNKPKILSLFSGCGGLDLGFHQAGCETVWANDFSHWACESFRKNIGDVIVEGDIEQINPNDPTIPDCDIILGGFPCQDFSMIWKQPGLEGERGNLYKSFLRFVNAKKPKVFVAENVKGLLTANKKKAIQQIITDFENCGYYVQAKLYNFAEFGVPQFRERVLIVGVRLDTGFDFRHPEPTHNETGENGLKPYVTAGQAISNIPQNASNNELLKISDKTRRMLELIPEGGNFTDIPKDHPLYVKGMISHVYRRMHRNEPSKTIIAAGGGGTWGYHFPEPRAFTNRERARLQSFPDDFEFVGSTTEVRRQIGNAVPPQGVVELAKSILPIFSDNYEKVDLHEKLVEEKEILFHDRLSKIRGGKEGHHHHHH	soluble
MSLSNKIFTHSLPMRYADFPTLVDALDYAALSSAGMNFYDRRCQLEDQLEYQTLKARAEAGAKRLLSLNLKKGDRVALIAETSSEFVEAFFACQYAGLVAVPLAIPMGVGQRDSWSAKLQGLLASCQPAAIITGDEWLPLVNAATHDNPELHVLSHAWFKALPEADVALQRPVPNDIAYLQYTSGSTRFPRGVIITHREVMANLRAISHDGIKLRPGDRCVSWLPFYHDMGLVGFLLTPVATQLSVDYLRTQDFAMRPLQWLKLISKNRGTVSVAPPFGYELCQRRVNEKDLAELDLSCWRVAGIGAEPISAEQLHQFAECFRQVNFDNKTFMPCYGLAENALAVSFSDEASGVVVNEVDRDILEYQGKAVAPGAETRAVSTFVNCGKALPEHGIEIRNEAGMPVAERVVGHICISGPSLMSGYFGDQVSQDEIAATGWLDTGDLGYLLDGYLYVTGRIKDLIIIRGRNIWPQDIEYIAEQEPEIHSGDAIAFVTAQEKIILQIQCRISDEERRGQLIHALAARIQSEFGVTAAIDLLPPHSIPRTSSGKPARAEAKKRYQKAYAASLNVQESLAEGHHHHHH	soluble
MSLSNYSTGELAKLCNVTTRTIQYYDRKGILKPQGFTEGKRRVYTEQQRQTLELILLLKDLGCALSDIDMLLKGEGTLKTLNTLLTMKQQEINQQVKQQQAVLNKIKNVQYYVNEGHHHHHH	not soluble
MSLSPEDLEATGARLVEELVEYRTRTQVSTAVIGMSGGVDSALTAALFKAAGWHVMGHTLPIEQDPTETDRGIEACAALGIEHRPLDLSGAYEAALAQLGELDPDLLSSDETPARTRRGNLRARLRMMTLYDQAHRLGGLVAGTDNFSELTAGFWTLHGDVGDLAPVQSLLKSWEVPWLARAYRVPEATWRAMPTDGLGIGGGDEAQIGATYLEWDILQFALAEALGDDPGLATRHLAFALRMDADRHAQEVLGTLIARMRATWHKRLNEGHHHHHH	not soluble
MSLSQIVAEVDGYKVTKEELDTLFHVFWKRITHLSSAKPTQEDKRIFLIDYVADLLILKEAKKMGIEVSEKEINDFIRKYVGRKIKEKSVINAVKAEILVEKLVDKLMKEQELNPSEDILRAYYEFYKREFYRPSSVKLLGIYVKSKKEAERISQILKQGEVPSTEDVKVSKPLWYSIPTLPKYIRRNFRTLSVGEVSKPIKINDGYLVFKILDKKEGHHHHHH	soluble
MSLSRAFLVAAPSSGSGKTTITLGLLRLFARRGMAVQPFKCGPDYLDTMLHAMAASTGETARPGLNLDTFMASKEHVRSLFARNAASADISVIEGVMGLFDGAEKSDGSSAEIAALLGLPVIMVIDGSKIAYSAAPILYGFKHFDPSVKVAGVIFNRVGSASHYSHLEAAAKDVGVEPLGYLPRNSDITISERHLGLNTSAEYDREKLIDAMAEHIEKTVNIERLLDVARIELPEIEQAQPVTKKLDKVIAVARDEAFNFIYHDNLETLKRYGEVRFFSPLHDRELPKADLVYLAGGYPELHAEALAANKTMRKAIAEWCRNRGATWAECGGLMYLGKTLTLADGAAHPMCGVLDLDTTMQEARLTLGYRKVYPAGADGVELRGHEFHYSRIWRQGEIDTIAEIRNARGQQVGTKLFRVGNTIASYLHLYWGEHDYLANWFDVLREGHHHHHH	soluble
MSLSRLPVIVGFGGYNAAGRSSFHHGFRRMVIESMDPQARQETLAGLAVMMKLVKAEGGRYLAEDGTPLSPEDIERRYAERIFASTLVRRIEPQYLDPDAVHWHKVLEATPAEGQALTFKASPKQLPEPLPGNWSVTPAADGEVLVSIHERCEFKVDSYRPLTVKSAGQLPTGFEPGELYNSRFHPRGLQMSVVAATDAIRSTGIDWQTIVDNVQPDEIAVFSGSIMSQLDDNGFGGLMQSRLKGHRVSAKQLPLGFNSMPTDFINAYVLGSVGMTGSITGACATFLYNLQKGIDVITSGQARVVIVGNSEAPILPECIEGYSAMGALATEEGLRLIEGRDEVDFRRASRPFGENCGFTLAESSQYVVLMDDELALRLGADIHGAVTDVFINADGFKKSISAPGPGNYLTVAKAVASAVQIVGLDTVRHASFVHAHGSSTPANRVTESEILDRVASAFGIDGWPVTAVKAYVGHSLATASADQLISALGTFKYGILPGIKTIDKVADDVHQQRLSISNRDVRQDKPLEVCFINSKGFGGNNASGVVLSPRIAEKMLRRRHGEAAFAAYVEKREQTRGAARAYDQRALQGDLEIIYNFGQDLIDEQAIEVSAEQVTVPGFSQPLVYKKDARFSDMLDEGHHHHHH	soluble
MSLSRPQFDPSAYAAQLEDKKSRLAGLLAPFAAPAPEVFESPREHYRLRAEFRLWRETGNEKRHYAMFEQGDKHTPILLEDFPIASRRINELMPRLKAAWADPALGFKLFQVEFLTTLAGDALITLCYHRPIDDAWRQAAEKLAAELGVNLVGRSRGKRIVVGRDYVEEELSVAGRRFRYRQPEGAFTQPNGEVNQKMLGWAYEALGQRDDDLLELYCGNGNFTLPLATRVRKVLATEISKSSVNAALANLADNAVDNVSLVRLSAEELTQALNEVRPFRRLADIDLKSYAFGSVFVDPPRAGMDPDTCELARRFERILYISCNPETLAQNIAQLHDTHRISRCALFDQFPYTHHMESGVLLEEGHHHHHH	soluble
MSLSRVTEIRYVGYGVKDFDAEKAFYADVWGLEPVGEDANNAWFKAQGADEHHVVQLRRADENRIDVIALAADSRSDVDALRASVEAAGCKVASEPAVLATPGGGYGFRFFSPDGLLFEVSSDVAKGAKRDLARWEGVPVKISHIVLHSPNHQDMVKFFTDVLGFKVSDWLGDFMCFLRCNSAHHRIAILPGPPCLNHVAYDMLSVDDMMRGAHRLKVKGIDIGWGPGRHTAGNNTFSYFVTPGGFVTEYTSELEEVDFDTHQYKVHVPAPMVMDQWGIGTGGPQTLPHPHANPGLFQTAEAEGHHHHHH	soluble
MSLSSDRLIYLPLGGAGEIGMNAYVYGYGKPGKERLILVDLGVTFPDMDTTPGVDLIMPDIAWLAKNRDRLEAVFITHAHEDHVGAVAHLYDRLGAPVYARAFTANIARRKMGEHGHPDEAVTTVSAWPEMTEAGPFQVGFVPLSHSIPESSGLVIDTPAGRIVHSGDFKLDENPIVGEAFDRKLWEEVAKPGVKVFACDSTNVMSRHPGRSESSVGGEIEKLVGTAEGVFVATTFASNVARVLTLAEAGQRAGRSVCLLGRAMRRMIEAAIETGVLADFPRTVSPEDARNIPRENLMLIVTGSQGERRAASAQLANGKYQGIELKEGDMFLFSSKTIPGNERGVLRIVNQLSEKGVDVIDDSSGLYHVSGHANRPDLETMHEILQPEILVPMHGEHRHLREHVKLADKRGIKGILAVNGMMIDLTGEGHHHHHH	soluble
MSLSSNRGVVYIGPGKVEVQDIADPKLEAPDRRKIAHGVILKVVSTNICGSDQHMVRGRTTAEPGLILGHEITGEVIEKGADVEMLEIGDIVSVPFNVACGRCRCCREGDTGVCLTVNPSRAGGAYGYVDMGGWIGGQARYVMVPYADFNLLKFPDRDRAMAKIRDLTMLSDILPTGFHGAWKAGVGVGSVVYVAGAGPVGLAAAASARILGAAVVMVGDFNKERLEHARKVGFEPVDLSKGDDLPEMIAQITGTPEVDAAIDAVGFEARGHSGGEQPAIVLNQMMQITRAAGQIGIPGLYVTEDPGAVDDAARHGSLSMRFGLGWAKAQSFHTGQTPVLKYNRQLMQAILHDRLPIADIVNATVIPLDQAVQGYESFDRGVAKKFVLDPHGMLAAEGHHHHHH	not soluble
MSLSVPRSGLSVQMAQPARPLRADAARNRARILGVAYEAFATEGLSVPIDEIARRAGVGAGTVYRHFPTKEALCAAVIGDRMPHLVDDGYVLLKSAGPGEALFTYLRSLVLHWGATDRGLVDALAGAGGIDILGVAPDAEDAFLTILSDLLYAAQYAGTARTDVGVREVKSILVGCQAMEAYNSALAERVTDVVVDGLRAAREGHHHHHH	soluble
MSLSWEYEYYPHSLFCHHKEREGMHYIEGAYWSAEPDLPYLHKRKILMLVEDVWLLVDDIRCQGQHEALTQFILDKDVTYQDGKINQLRLWSEVDFDLEDTIISPKYNELERSSKLTKRQFFENQMLDYTIIAHESFEIIRHSVYQTDDREVENALAFEVKNDETDKLILLLSEDIRVGEKLCLVDGTKMRGKCLVYDKINERMIRLQCEGHHHHHH	soluble
MSLSYKKIAIITGANSGFGKEFLKLLINEEEITEIWAVARNKARLNQLVDEFGSKVKIFSKDLSKIEEVKEIGTFLSKENVCIKYLINNAGFAKFCSYNDLSIDESINMIDLNISAVVALGLICIPYMQKGSHIMNISSQASFQPLPYQNIYSSTKAFIRNYTRALNVELKSKGINAIAVCPGWMSTNLFKRGIVVAEKGTKNFPGIVSPDVVAKKALKDAKKNKDISVYGINTKSSHLLAKLLPQKMMMKVWLMQQHIKEGHHHHHH	soluble
MSLTADPPACTVPAAGVSSTHKLVNGGAEKIVFKIKSSNNNEYRIAPVFGFVDPSGSKDVVITRTAGAPKEDKLVVHFASAPADATDAQAAFVAVAPAGTVTIPMSATA	soluble
